Experimental data reported in patent US20150266962A1 (Pfizer, published 2015).

B1: chimeric antibody ch08 (antibody, human IgG1, V domains shown)
VH: EVQLVESGGDLVRPGGSLQLSCAASGFTFSRNGMSWVRQTPDRRLEWVATVSSGGSYIYYADSVKGRFTISRDNARNTLYLQMSSLKSEDTAMYYCARQGTTALATRFFDVWGAGTTVTVSS
VL: DIVMTQSHKFISTSVGDRVSITCKASQDVGTAVAWYQQIPGQSPKLLIYSASYRSTGIPDRFTGSGSGTDFSFIISSVQAEDLALYYCQHHYSAPWTFGGGTTLDIK
notes: also called ch08Hc + Lc; chimeric antibody 08
B2: chimeric antibody ch07 (antibody, human IgG1, V domains shown)
VH: QVQLKESGPGLVAPSQSLSINCTVSGFSLTKYGVHWIRQSPGKGLEWLGVKWAGGSTDYNSALMSRLTISKDNNKSQVFLKMNSLQSDDSAMYYCARDHRDAMDYWGQGTSVTVSS
VL: QVVLTQSPAIMSASPGERVTMTCTASLSVSSTYLHWYHQKPGSSPKLWIYSTSNLASGVPARFSGSGSGTSYSLTISSMEAEDAATYYCHQYHRSPLTFGSGTKLELK
notes: also called chimeric antibody 07; biotin-ch07 (biotinylated form)

Experiments:
[1] = target: T1, recombinant human IL-13 receptor alpha 2 (hIL-13-Rα2) (human, UniProt Q14627 27-343); test: direct ELISA on coated recombinant hIL-13-Rα2
T1 construct: Recombinant soluble antigen coated on ELISA plates or used in Biacore; also called rec hIL-13Rα2; rhIL-13Rα2
T1 sequence (looked up): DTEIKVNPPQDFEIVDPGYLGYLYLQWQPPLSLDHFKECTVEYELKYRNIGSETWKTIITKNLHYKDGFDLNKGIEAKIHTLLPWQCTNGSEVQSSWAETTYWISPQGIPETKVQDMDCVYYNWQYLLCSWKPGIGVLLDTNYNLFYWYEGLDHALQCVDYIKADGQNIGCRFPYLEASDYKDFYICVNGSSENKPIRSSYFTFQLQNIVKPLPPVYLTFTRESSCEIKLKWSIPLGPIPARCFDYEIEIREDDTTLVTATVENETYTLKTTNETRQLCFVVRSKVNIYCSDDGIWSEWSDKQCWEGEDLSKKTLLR
Description: Humanized hu08 binding to recombinant hIL-13-Rα2 was evaluated by a standard direct ELISA. Recombinant hIL-13-Rα2 was coated onto a 96-well plate. Serially diluted chimeric antibodies or humanized antibodies in combinations of heavy and light chains of versions 1.0 and 1.1 e.g. hu08 v1.0 HC/1.0 LC, hu08 v1.0 HC/v1.1 LC, hu08 v1.1 HC/v1.0 LC, and hu08 v1.1 HC/v1.1 LC, were added to the plate and incubated at room temperature for 1-2 hours. The binding was detected by HRP conjugated goat anti-human Ig Kappa.

[2] = target: T2, recombinant mouse IL-13-Rα2 (mIL-13-Rα2) (mouse, UniProt O88786 22-334, limits assumed); test: direct ELISA on coated recombinant mIL-13-Rα2, serially diluted purified ch08
T2 construct: also called murine mIL-13Rα2
T2 sequence (looked up): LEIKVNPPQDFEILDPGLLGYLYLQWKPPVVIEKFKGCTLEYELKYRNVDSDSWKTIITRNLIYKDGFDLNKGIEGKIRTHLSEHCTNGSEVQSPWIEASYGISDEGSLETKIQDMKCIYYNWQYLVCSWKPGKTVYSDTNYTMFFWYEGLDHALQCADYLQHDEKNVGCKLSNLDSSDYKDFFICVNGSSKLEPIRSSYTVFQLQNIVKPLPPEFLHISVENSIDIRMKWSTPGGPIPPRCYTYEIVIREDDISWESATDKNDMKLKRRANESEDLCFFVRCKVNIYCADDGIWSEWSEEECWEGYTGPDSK
Description: (§1) The binding of hu07 and hu08 to mouse IL-13-Rα2 was evaluated by direct ELISA. The identity between human and mouse IL-13-Rα2 at the amino acid level is approximately 64%. Recombinant mIL-13-Rα2 or hIL-13-Rα2 (as positive control) was coated onto a 96-well plate. Purified chimeric ch07 and ch08 were serially diluted and added to the antigen coated plate. The bound antibodies were detected by HRP conjugated goat anti-human IgGFc specific secondary antibody.

[3] = target: T1, recombinant human IL-13 receptor alpha …; test: competition ELISA on plate-coated recombinant hIL-13-Rα2; competitor: constant amount of biotin-ch08, detected with streptavidin-HRP
Description: (§2) A competition ELISA was performed to examine whether ch07 and ch08 have distinct binding epitopes. Prior to the competition ELISA experiment, ch07 and ch08 were biotinylated. The EC50 of the biotinylated ch07 (biotin-ch07) and ch08 (biotin-ch08) were determined by direct standard ELISA. For the competition ELISA, recombinant hIL-13-Rα2 was coated onto 96-well plates at 50 ul of 2 μg/mL in PBS overnight at 4° C. The plates were then blocked and washed following a standard ELISA protocol. 3-fold serially diluted ch07 and ch08 (2× final concentration) were mixed with a constant amount of biotin-ch07 (FIG. 2A) or biotin-ch08 (FIG. 2B), respectively and were added to the plate and incubated for 1 hour at room temperature. The amount of biotinylated chimeric antibody bound was detected by HRP conjugated streptavidin at 1:5000 for 1 hour. […] Similar results are obtained when the same set of antibodies were used to compete with biotin-ch08 (FIG. 2B).

[4] = target: T1, recombinant human IL-13 receptor alpha …; test: SPR Biacore, pH 7.4
Description: To assess the binding kinetics of the ch07 and ch08 antibodies, SPR (Surface Plasmon Resonance) experiments were conducted on a Biacore® T100 or T200 instrument using a Biacore® human Fab Capture Kit (GE Healthcare). All data was analyzed using the Biacore® T100 evaluation software version 2.0 with a 1:1 Langmuir binding model.
Kₐ, Kd and KD are shown on Table 5. […] At pH6.0, ch07 and ch08 binding affinity to hIL-13-Rα2 are in the low nM range. Dissociation rates of ch08 and ch07 are very similar. Higher KDs at pH6.0 than pH7.4 are due to a slower association rate.

[5] = target: T1, recombinant human IL-13 receptor alpha …; test: direct ELISA on rhIL-13Rα2 (given as ED50)
[6] = target: T1, recombinant human IL-13 receptor alpha …; test: direct ELISA on rhIL-13Rα2, purified protein (given as ED50)
[7] = target: T2, recombinant mouse IL-13-Rα2 (mIL-13-Rα2); test: direct ELISA on coated recombinant mIL-13-Rα2, serially diluted purified ch07
Description: as §1

[8] = target: T1, recombinant human IL-13 receptor alpha …; test: competition ELISA on plate (recombinant IL-13-Rα2), competitor biotinylated ch07
[9] = target: T1, recombinant human IL-13 receptor alpha …; test: competition ELISA on plate-coated recombinant hIL-13-Rα2; competitor: constant amount of biotin-ch07, detected with streptavidin-HRP
Description: as §2

Binder	EC50 [1]	binding result [2]	IC50 (read off the curve) [3]	fold slower dissociation than ch08 [4]	EC50 [5]	EC50 [6]	binding result [7]	IC50 [8]	IC50 (read off the curve) [9]
B1	0.152 nM	no binding	~6 nM						
B2				~2 fold	0.217 nM	0.39 nM	no binding	2.21 nM	~2 nM
